Measurements reported in the supplement of paper PMC12636428.

Tested on: Saccharomyces cerevisiae
Assay: transcriptional activation domain activity (GFP:mCherry ratio, weighted mean of sorted bins, harmonized to initial dataset scale) (arbitrary fluorescence ratio units); higher = stronger transcriptional activation
Conditions: beta-estradiol 1 µM; induction time 4 h
How it was run: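 Barcoded protein tiles fused to an estradiol-inducible synthetic transcription factor were integrated at the yeast URA3 locus, in diploids carrying a GFP reporter. Cultures were diluted 1:5 into SC with 1 uM beta-estradiol, held 4 hours at 30 °C, sorted into 8 bins by GFP:mCherry ratio, and barcodes sequenced. Tiles under 50 reads were discarded. Activation activity is the read-weighted mean of bin median fluorescence, averaged across barcodes, then linearly mapped onto the initial dataset scale.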

Sequence	transcriptional activation domain activity
GHGSSDGGRPPAKRARKAINCEPCRSSKLKCDRNRPCSSCVLRGTAAQCYPGS	38800
MISWLLRFFWLPGGLFFIWCFFSVPFFALRFCSCRHSFFTTFFLCFFYFYFVT	67100
MSKRLSFFFSGYLVLCGFSGVAFLFYFSLFNLVYYYPFLLLFNGFGGICIFLV	56800
NHCKVFFLSFLFFVIYNYLLFILFFYILLLYCYPKPLFPLLSSSPPSFPPQFI	50300
MCLLGDGRHPEFFIFYFLYHFFLLYLLFYPQAFSRYLFIWMGCLNCFYFRFGL	41000
APMGRRTFAVDVDESGNSLAKKVKAARVKGYNYIIVVGERDLERGTAAVECVV	36000
VLLYFCSGYMFAILITVAYILLQFLVPLITDAHVLFFEWTFFEFLFRIWFLLW	79500
ADCAVIGVVSEEEATELPRAYVVHAKGIPPSEHEAFGVSVQEWIKSRVARHKQ	53600
MIVRLSSVPVSGCSFVVIEALLDFLVLPLRHFNLFIAPTSFFSHLYVFFFFGR	56700
VCFMGVLIGLLPGTWLCYGSDVCVKGLSSSIISMQLGLLGSLLLILKLVIGVA	61700
RDAKERGEGKRKREERDSRRSERGEEDGKRRRESSADRDPDRKRSRRRRKDRD	40900
PARGNKDVFFIMFHPSEEFLFNILSLWLRACNPNCRIFHSHEAGSWKQYQKET	45000
ADAAGEPAQANGESKSAKRRKQKKAAAAAKAAGATNADGTPAAAAEKPARAQR	17100
EGRRASRRKARGKSGADTPGTSEDEGVGGTSKSKPRKKRKLERKSKDAGKFKS	27600
RRDILHRAIVFEGDAARSGTASTKWRSEVRGSARKMRPQKGSGRARLGDKKSP	15600
NCVGHFTYGHFLRFLFYVDVACAYHLSMITWRVFHAMHASYWASPFTEMIFII	65500
ESDGGGEESGEGEERRKRRKKERLERRERKLKAKEEKKKKKSRGDGEAATKSQ	25100
LSVSVQGGQLQLRGLNITLTRCHDFMRNIFPLDFPQGRLLALILSLRLFFLST	84500
GRRGSKAVPGEVSEAEANGDAPQTEATPAPESDDAAKPKKKKKSKAARKAKKA	36100
PTPSGDPEEEEEGEGEEGGEERGGGGGGGGGKKKNHAGAIAGGVVGGVAVIGL	24600
EDAEATPAAAVEAEDDAMVVDSEEPKKKSKKDKKEKKDKKRKAAETTEAETAN	16400
GGADTKQGAKIACLECRTAKIKCSAPTDGVVPCRRCVRHGRECIFEKHRRGRK	42200
MRLFRECALFDTFMLYLNGDCMWVCLCLCFYLDFTVLGWFIIYGLVYCRVDDR	56000
SDDETSRSHKKSSRRDTSQDDAERGRHHHKSSRHKGERDRHHKIRSRSRSPAR	13900
SISQFCWIWYTRPRPLQDICYYDSASRGPWGCFLLLLRLRFIRFACIGAIITL	78600
LAQAFFASMPVVCFLTFGLFVLFALVAGFLFFTLFWVGLAFCVLVPVLVVTFC	49000
TRCLLMYMYFLQDIGIYIYCILILNLFRKVRRLIPFPSRVLMVLHVITICIFT	74300
PKVLYILARYLGIIYISLFLGLRWSHFPIFVMKVNNLAYFVNALLYYTWIIIT	33800
GIISRLVRHAHEMSYITSPLCELAAMLSINWWVKRPFIYFELFGYIRMVLLQS	86400
KDGKQRRTREAAGSGHARRRRRGDRERRKGQPRAGRPGAKAKGKAGGTGAKQE	15700
